Blank lines part the entries; values can stand above or below the sequence they belong to.
How the values were obtained:
HLA-A*02:01 [1] = test: IEDB peptide-MHC binding, purified MHC/competitive/fluorescence; filed as Kd, often an IC50 or EC50 that approximates it; ≥ and ≤ were set here for values at or beyond the usual limits of such assays
HLA-A*02:03 [2] = test: as above; settings: source organism: Yersinia mollaretii ATCC 43969
HLA-A*02:12 [3] = test: as above
HLA-A*02:19 [4] = test: as above
HLA-A*03:01 [5] = test: as above
HLA-A*24:03 [6] = test: as above
HLA-A*26:01 = test: as above
HLA-A*68:02 [7] = test: as above
HLA-B*15:01 [8] = test: as above
HLA-B*15:17 = test: as above
HLA-B*18:01 [9] = test: as above
HLA-B*27:03 = test: as above
HLA-B*39:01 [10] = test: as above
HLA-B*46:01 [11] = test: as above
HLA-B*51:01 = test: as above
HLA-B*57:01 [12] = test: as above
HLA-A*23:01 = test: IEDB peptide-MHC binding, purified MHC/direct/fluorescence; filed as Kd, often an IC50 or EC50 that approximates it; ≥ and ≤ were set here for values at or beyond the usual limits of such assays
HLA-A*24:03 [13] = test: as above
HLA-A*01:01 = test: as above
HLA-A*02:01 [14] = test: as above
HLA-A*02:11 [15] = test: as above; settings: source organism: Orthohantavirus tulaense
HLA-A*02:12 [16] = test: as above
HLA-A*03:01 [17] = test: as above
HLA-A*29:02 = test: as above
HLA-A*31:01 [18] = test: as above
HLA-A*68:02 [19] = test: as above; settings: source organism: Orthohantavirus tulaense
HLA-B*15:01 [20] = test: as above
HLA-B*18:01 [21] = test: as above
HLA-B*27:05 = test: as above
HLA-B*39:01 [22] = test: as above
HLA-B*44:02 = test: as above
HLA-B*46:01 [23] = test: as above
HLA-B*48:01 = test: as above
HLA-B*57:01 [24] = test: as above
HLA-A*69:01 [25] = test: IEDB peptide-MHC binding, purified MHC/competitive/fluorescence; filed as Kd, often an IC50 or EC50 that approximates it; ≥ and ≤ were set here for values at or beyond the usual limits of such assays
HLA-A*11:01 = test: IEDB peptide-MHC binding, purified MHC/direct/fluorescence; filed as Kd, often an IC50 or EC50 that approximates it; ≥ and ≤ were set here for values at or beyond the usual limits of such assays; settings: source organism: Mammarenavirus lassaense
HLA-A*69:01 [26] = test: as above; settings: source organism: Mammarenavirus lassaense
HLA-B*07:02 = test: as above; settings: source organism: Mammarenavirus lassaense
HLA-B*40:01 = test: as above; settings: source organism: Mammarenavirus lassaense
HLA-B*58:01 = test: as above; settings: source organism: Mammarenavirus lassaense
HLA-A*02:03 [27] = test: as above; settings: source organism: Orthohantavirus andesense
HLA-A*02:19 [28] = test: as above; settings: source organism: Orthohantavirus andesense
HLA-A*02:11 [29] = test: IEDB peptide-MHC binding, purified MHC/competitive/fluorescence; filed as Kd, often an IC50 or EC50 that approximates it; ≥ and ≤ were set here for values at or beyond the usual limits of such assays; settings: source organism: Escherichia coli
HLA-A*31:01 [30] = test: as above; settings: source organism: Bacillus anthracis str. A0488
[31] = source organism: Yersinia mollaretii ATCC 43969
[32] = source organism: Cryptosporidium parvum Iowa II
[33] = source organism: Vibrio vulnificus CMCP6
[34] = source organism: Isla Vista hantavirus
[35] = source organism: Orthohantavirus tulaense
[36] = source organism: Orthohantavirus puumalaense
[37] = source organism: Mammarenavirus lassaense
[38] = source organism: Orthohantavirus andesense
[39] = source organism: Escherichia coli

Sequence: MMWIPGWFG
Kd (HLA-A*02:01 [1]; [31]): ≥ 20 µM | Kd (HLA-A*02:03 [2]): ≥ 20 µM | Kd (HLA-A*02:12 [3]; [31]): 0.185 µM | Kd (HLA-A*02:19 [4]; [31]): ≥ 20 µM | Kd (HLA-A*03:01 [5]; [31]): ≥ 20 µM | Kd (HLA-A*24:03 [6]; [31]): ≥ 20 µM | Kd (HLA-A*26:01; [31]): ≥ 20 µM | Kd (HLA-A*68:02 [7]; [31]): ≥ 20 µM | Kd (HLA-B*15:01 [8]; [31]): ≥ 20 µM | Kd (HLA-B*15:17; [31]): ≥ 20 µM | Kd (HLA-B*18:01 [9]; [31]): ≥ 20 µM | Kd (HLA-B*27:03; [31]): ≥ 20 µM | Kd (HLA-B*39:01 [10]; [31]): ≥ 20 µM | Kd (HLA-B*46:01 [11]; [31]): ≥ 20 µM | Kd (HLA-B*51:01; [31]): ≥ 20 µM | Kd (HLA-B*57:01 [12]; [31]): ≥ 20 µM

Sequence: GFKRGIFIF
Kd (HLA-A*23:01; [32]): 0.002 µM | Kd (HLA-A*24:03 [13]; [32]): ≤ 0.001 µM

Sequence: SVYFAAFAF
Kd (HLA-A*23:01; [33]): 0.016 µM | Kd (HLA-A*24:03 [13]; [33]): 0.066 µM | Kd (HLA-B*46:01 [11]; source organism: Vibrio vulnificus YJ016): ≥ 20 µM

Sequence: SSLRYGNVL
Kd (HLA-A*01:01; [34]): ≥ 20 µM | Kd (HLA-A*02:01 [14]; [34]): ≥ 20 µM | Kd (HLA-A*02:11 [15]): ≥ 20 µM | Kd (HLA-A*02:12 [16]; [35]): ≥ 20 µM | Kd (HLA-A*03:01 [17]; [34]): ≥ 20 µM | Kd (HLA-A*24:03 [13]; [35]): ≥ 20 µM | Kd (HLA-A*29:02; [34]): ≥ 20 µM | Kd (HLA-A*31:01 [18]; [34]): ≥ 20 µM | Kd (HLA-A*68:02 [19]): ≥ 20 µM | Kd (HLA-B*15:01 [20]; [34]): ≥ 20 µM | Kd (HLA-B*18:01 [21]; [34]): ≥ 20 µM | Kd (HLA-B*27:05; [34]): ≥ 20 µM | Kd (HLA-B*39:01 [22]; [34]): 4 µM | Kd (HLA-B*44:02; [34]): ≥ 20 µM | Kd (HLA-B*46:01 [23]; [34]): ≥ 20 µM | Kd (HLA-B*48:01; [34]): ≥ 20 µM | Kd (HLA-B*57:01 [24]; [34]): ≥ 20 µM | Kd (HLA-A*26:01; [36]): ≥ 20 µM | Kd (HLA-A*69:01 [25]; [36]): ≥ 20 µM | Kd (HLA-B*27:03; [36]): ≥ 20 µM | Kd (HLA-B*51:01; [36]): ≥ 20 µM

Sequence: KHDEEFCDM
Kd (HLA-A*01:01; [37]): ≥ 20 µM | Kd (HLA-A*02:01 [14]; [37]): ≥ 20 µM | Kd (HLA-A*03:01 [17]; [37]): ≥ 20 µM | Kd (HLA-A*11:01): ≥ 20 µM | Kd (HLA-A*29:02; [37]): ≥ 20 µM | Kd (HLA-A*31:01 [18]; [37]): ≥ 20 µM | Kd (HLA-A*69:01 [26]): ≥ 20 µM | Kd (HLA-B*07:02): ≥ 20 µM | Kd (HLA-B*15:01 [20]; [37]): ≥ 20 µM | Kd (HLA-B*18:01 [21]; [37]): ≥ 20 µM | Kd (HLA-B*27:05; [37]): ≥ 20 µM | Kd (HLA-B*39:01 [22]; [37]): ≥ 20 µM | Kd (HLA-B*40:01): ≥ 20 µM | Kd (HLA-B*44:02; [37]): ≥ 20 µM | Kd (HLA-B*46:01 [23]; [37]): ≥ 20 µM | Kd (HLA-B*48:01; [37]): ≥ 20 µM | Kd (HLA-B*57:01 [24]; [37]): ≥ 20 µM | Kd (HLA-B*58:01): ≥ 20 µM

Sequence: CIIGTVSKF
Kd (HLA-A*23:01; source organism: Amur virus): 0.097 µM | Kd (HLA-A*24:03 [13]; source organism: Amur virus): 0.049 µM

Sequence: RWASGVSEI
Kd (HLA-A*02:03 [27]): ≥ 20 µM | Kd (HLA-A*02:12 [16]; [38]): ≥ 20 µM | Kd (HLA-A*02:19 [28]): ≥ 20 µM | Kd (HLA-A*03:01 [17]; [38]): ≥ 20 µM | Kd (HLA-A*24:03 [6]; [38]): 0.0002 µM | Kd (HLA-A*26:01; [38]): ≥ 20 µM | Kd (HLA-B*18:01 [9]; [38]): ≥ 20 µM | Kd (HLA-B*27:03; [38]): ≥ 20 µM | Kd (HLA-B*39:01 [10]; [38]): ≥ 20 µM | Kd (HLA-B*46:01 [11]; [38]): ≥ 20 µM | Kd (HLA-B*51:01; [38]): ≥ 20 µM | Kd (HLA-B*57:01 [12]; [38]): ≥ 20 µM

Kd (HLA-A*24:03 [6]; source organism: Escherichia coli 536): 0.0003 µM
Sequence: QYTRNSFYI

Kd (HLA-A*02:01 [1]; [39]): ≥ 20 µM | Kd (HLA-A*02:11 [29]): 0.0136 µM | Kd (HLA-A*02:12 [3]; [39]): ≥ 20 µM | Kd (HLA-A*02:19 [4]; [39]): ≥ 20 µM | Kd (HLA-A*03:01 [5]; [39]): ≥ 20 µM | Kd (HLA-A*26:01; [39]): ≥ 20 µM | Kd (HLA-A*68:02 [7]; [39]): ≥ 20 µM | Kd (HLA-A*69:01 [25]; [39]): ≥ 20 µM | Kd (HLA-B*15:01 [8]; [39]): ≥ 20 µM | Kd (HLA-B*15:17; [39]): ≥ 20 µM | Kd (HLA-B*18:01 [9]; [39]): ≥ 20 µM | Kd (HLA-B*27:03; [39]): ≥ 20 µM | Kd (HLA-B*39:01 [10]; [39]): ≥ 20 µM | Kd (HLA-B*46:01 [11]; [39]): ≥ 20 µM | Kd (HLA-B*51:01; [39]): ≥ 20 µM | Kd (HLA-B*57:01 [12]; [39]): ≥ 20 µM
Sequence: MFWKLPPWL

Sequence: HFFESLYAR
Kd (HLA-A*24:03 [6]; source organism: Bacillus anthracis str. A0488): 4.13 µM | Kd (HLA-A*31:01 [30]): 0.0016 µM

Source: the Immune Epitope Database (IEDB)
